Results: patent US20040157227A1, “Reproductive cancer diagnosis and therapy” (priority 2001, published 2004)

Assays:
[1] = biological target: growth hormone secretagogue receptor type 1a (human) (UniProt Q92847); assay: cell-based or functional assay
Ishikawa cells = assay: Cell proliferation assay (MTT dye method), Ishikawa cells; assay type: cell-based, human; conditions: ghrelin 0-20 nM, 3 days, 10% FCS
Experimental: (§1) FIG. 14: The effect of ghrelin on MDA-MB231 and Ishikawa cells. Cell proliferation was determined using the MTT dye method. Absorbance readings for each were converted to percentages above control±SEM, indicated by error bars. * denotes P values <0.01, ** P<0.001 (one-way ANOVA with Tukey's post hoc comparisons).
(§2) PC3, MDAMB231 and Ishikawa cells were cultured in 96 well plates for 3 days at 37° C. in the presence of ghrelin (0-20 nM), in 10% FCS. Negative controls received no treatment. After aspiration of medium, cells were incubated in MTT (Sigma) solution (0.5 mg/ml) for 2h. MTT solution was aspirated and formazan salts solubilised in dimethyl sulfoxide (ICN, Costa Mesa, Calif.). A Biomeck Plate reader (Beckman, QLD, Australia) was used to measure absorbances (550/650nm).

MDA-MB 231 cells = assay: Cell proliferation assay (MTT dye method), MDA-MB 231 cells; assay type: cell-based, human; conditions: ghrelin 0-20 nM, 3 days, 10% FCS
Experimental: as §1, §2

PC3 cells = assay: Cell proliferation assay (MTT dye method), PC3 cells; assay type: cell-based, human; conditions: 5 nM ghrelin, 3 days, 10% FCS
Experimental: FIG. 13: The effect of ghrelin on PC3 cells. Cell proliferation was determined using the MTT dye method. Absorbance readings for each were converted to percentage above control±SEM, indicated by error bars. * denotes P values <0.01, ** P<0.001 (one-way ANOVA with Tukey's post hoc comparisons). Data represents one of 3 identical experiments, each n=16.
as §2

Sequence of UniProt Q92847 (Q92847 whole entry): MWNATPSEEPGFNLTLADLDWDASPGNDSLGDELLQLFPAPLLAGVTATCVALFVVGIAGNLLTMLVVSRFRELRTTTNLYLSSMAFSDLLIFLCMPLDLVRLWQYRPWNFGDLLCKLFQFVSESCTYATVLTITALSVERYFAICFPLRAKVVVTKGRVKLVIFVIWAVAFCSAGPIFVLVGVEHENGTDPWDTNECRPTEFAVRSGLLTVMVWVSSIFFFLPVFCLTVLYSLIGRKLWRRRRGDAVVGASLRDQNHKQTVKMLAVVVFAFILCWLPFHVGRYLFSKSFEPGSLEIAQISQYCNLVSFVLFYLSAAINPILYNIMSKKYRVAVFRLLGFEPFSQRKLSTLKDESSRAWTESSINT

human ghrelin (from UniProt Q9UBU3 24-117) (peptide)
Cell proliferation of PC3 cells (MTT dye method) (% above controls) [1]: 33

B1: ghrelin (peptide)
peptide: GSSFLSPEHQRVQQRKESKKPPAKLQPRALAGWLRPEDGGQAEGAEDELEVRFNAPFDVGIKLSGVQYQQHSQALGKFLQDILWEEAKEAPADK
notes: endogenous ligand for the GHS-R, a 28 amino acid peptide
dose related increase in cell proliferation above untreated controls (peak) (Ishikawa cells): 19%
dose related increase in cell proliferation above untreated controls (peak) (MDA-MB 231 cells): 25%
viable cell numbers increased above controls (peak of dose-related increase) (PC3 cells): 33%
